Source: patent US20080138335A1

Assays:
[1] = biological target: CD40 expressed on Ramos [ATCC] cells (UniProt P25942); experiment: cell-based or functional assay
[2] = biological target: CD40 expressed on Ramos [ATCC] cells (UniProt P25942); experiment: flow cytometry (FACS) on Ramos cells expressing CD40, negative control at 2 ug/ml, FIG. 3
[3] = biological target: CD40 expressed on Ramos [ATCC] cells (UniProt P25942); experiment: flow cytometry (FACS) on Ramos cells expressing CD40, negative control at 2 ug/ml, FIG. 1A
[4] = biological target: CD40 expressed on Ramos [ATCC] cells (UniProt P25942); experiment: flow cytometry (FACS) on Ramos cells expressing CD40, negative control at 2 ug/ml, FIG. 1B
[5] = biological target: CD40 expressed on Ramos [ATCC] cells (UniProt P25942); experiment: flow cytometry (FACS) on Ramos cells expressing CD40, negative control at 2 ug/ml, FIG. 1C

CD40 expressed on Ramos [ATCC] cells, sequence (P25942 21-277 limits assumed): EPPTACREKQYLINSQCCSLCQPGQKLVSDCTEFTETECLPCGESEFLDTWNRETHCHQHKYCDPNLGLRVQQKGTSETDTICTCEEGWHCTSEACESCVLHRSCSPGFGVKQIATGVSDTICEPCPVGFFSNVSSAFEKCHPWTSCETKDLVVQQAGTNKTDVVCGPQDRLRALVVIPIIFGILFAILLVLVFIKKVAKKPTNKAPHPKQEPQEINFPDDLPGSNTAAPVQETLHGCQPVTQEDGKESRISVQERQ

Which CD95 expression level in Ramos cells stimulated with soluble CD40 ligand, isotype control of FIG. 4 (average fluorescence intensity) [1] does the source give for “human IgG1 antibody against human serum albumin” here?
Its CD95 expression level in Ramos cells stimulated with soluble CD40 ligand, isotype control of FIG. 4 (average fluorescence intensity) is 27.2.

What about the CD95 expression level in Ramos cells, isotype control of FIG. 2A (average fluorescence intensity) [1] of the same substance?
Its CD95 expression level in Ramos cells, isotype control of FIG. 2A (average fluorescence intensity) is 7.58.

And the CD95 expression level in Ramos cells, isotype control of FIG. 2B (average fluorescence intensity) [1]?
The CD95 expression level in Ramos cells, isotype control of FIG. 2B (average fluorescence intensity) was 7.58.

And the CD95 expression level in Ramos cells, isotype control of FIG. 2C (average fluorescence intensity) [1]?
The CD95 expression level in Ramos cells, isotype control of FIG. 2C (average fluorescence intensity) was 6.29.

And the average fluorescence intensity (average fluorescence intensity) [2]?
The average fluorescence intensity (average fluorescence intensity) was 5.01.

What about the average fluorescence intensity (average fluorescence intensity) [3] of the same substance?
The average fluorescence intensity (average fluorescence intensity) was 7.15.

What about the average fluorescence intensity (average fluorescence intensity) [4] of the same substance?
The average fluorescence intensity (average fluorescence intensity) was 7.15.

And the average fluorescence intensity (average fluorescence intensity) [5]?
Its average fluorescence intensity (average fluorescence intensity) is 5.01.
